The text below walks through data of the supplement of paper PMC12042874.

± gives the uncertainty stated by the source.

A short description of the data set: amyloid nucleation score (Sup35N fusion, yeast selection) (log enrichment); library NNK1; higher = more nucleation; inactive = no reads after selection. The gist of the method:
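Random libraries were run with three technical output replicates. In each, psi-negative yeast expressing Sup35N fused to peptides of 20 random codons were induced 24 hours with 100 μM copper sulfate and grown 7 days at 30°C on medium lacking adenine and uracil, and input and output plasmid inserts were Illumina-sequenced. The nucleation score is the DiMSum log enrichment of output over input reads, centred on the mode score of non-aggregating sequences, and sequences under 100 input reads were excluded.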
LNFWGACLIHYSWQNTIVLV displayed an amyloid nucleation score of 2.28 ± 0.16.

LNLTCDHSPSYLLIFFLMSI: the amyloid nucleation score was determined as 0.719 ± 0.2.

Take LNNSGVTTICLAGRVTFCTD: the amyloid nucleation score is 6.55 ± 0.075.

Substance LNRRLGDVEPIYAGLTSQQS returned an amyloid nucleation score of 0.313 ± 0.3.

Substance LNRVEYS showed an amyloid nucleation score of 6.843 ± 0.068.

Substance LNSAVDMGCFVVNLYMLCIY registered an amyloid nucleation score of 4.22 ± 0.059.

Consider LNTAQI, for which the amyloid nucleation score came to 0.512 ± 0.29.

LNTFTVLMLWMLLQNVAFIL showed an amyloid nucleation score of -1.37 ± 2.1.

LNVIQPSWDRNFHFEVRFGH yielded an amyloid nucleation score of 7.942 ± 0.061.

Substance LNVRGITIKLCHFRRIWYAQ registered an amyloid nucleation score of -1.25 ± 0.83.

LNYDLWTKILNDVVVVCNRF returned an amyloid nucleation score of -0.185 ± 0.4.

In turn, LPCLSMKVLDTNYNLPCSKN had an amyloid nucleation score of -0.458 ± 0.32.

For LPEEDG, the amyloid nucleation score entry was “inactive”.

LPKLICIKRASLFNPFLDLM displayed an amyloid nucleation score of 0.056 ± 0.24.

For the substance LPNSMLSSGLGWSSINFF, the amyloid nucleation score is 1.16 ± 0.7.

Substance LPYTHFGDDLIGITQDGLRV registered an amyloid nucleation score of -0.035 ± 0.43.

Consider LQASLGNDPSSVRVSSRGNW, for which the amyloid nucleation score was -0.468 ± 0.54.

Regarding LQCSCLTVWLQNRPDQLSPS, the amyloid nucleation score turned out to be 0.1 ± 0.73.

LQNIFLKACDWLGCWDVDVM yielded an amyloid nucleation score of -0.149 ± 0.93.

Consider LQPLLISIKRRFLHYVSQNM, for which the amyloid nucleation score was -0.073 ± 0.66.

Substance LQQMIRRLVLRFMAATAL gave an amyloid nucleation score of 0.14 ± 0.37.

Take LQWEVSSLNVLRFPRNMERC: the amyloid nucleation score came out at 0.289 ± 0.4.

In turn, LRAPGTMVDRRCRGVWK showed an amyloid nucleation score of 0.356 ± 0.85.

LRCTCVECQWKRCESTLGGG displayed an amyloid nucleation score of -1.02 ± 2.7.

Consider LRDDRFLMKLHYKKQDSSCV, for which the amyloid nucleation score is 0.324 ± 0.53.

For LREFPFYFTISLRITLFMSL, the amyloid nucleation score was -0.391 ± 0.23.

For LRFHEGVLGAMFEGSVCVLE, the amyloid nucleation score is -0.01 ± 1.5.

Take LRGFRFVAIMLSVYRKVKVD: the amyloid nucleation score was -0.531 ± 0.34.

Turning to LRITYMSLVEYG, the amyloid nucleation score is 1.35 ± 0.69.

Take LRLLFLNNSATCLVTHVGNQ: the amyloid nucleation score was 1.38 ± 0.74.

LRNHASVPV: the amyloid nucleation score stood at 0.084 ± 0.4.

LRRVRMEWSVVMHGQSENPE yielded an amyloid nucleation score of 1.2 ± 0.35.

LRSSVDLTRGESYNSGKFFN: the amyloid nucleation score came out at 0.435 ± 0.32.

As to LRTMIVLGFSTWDTCIGSES, the amyloid nucleation score was -0.537 ± 0.28.

With LRTRDQSGFSAVIYSKNPRA, the amyloid nucleation score was 0.106 ± 0.51.

LRTWDSIFYDLMGACGRPWV registered an amyloid nucleation score of -0.521 ± 0.54.

As to LRVCNLFCL, the amyloid nucleation score worked out at 7.912 ± 0.046.

LRVHDHDRMSDKMRYCNPFC registered an amyloid nucleation score of 1.76 ± 0.42.

Substance LRVSYWQDLAVLYLDSPLGL showed an amyloid nucleation score of -0.358 ± 0.87.

Take LRVYHSYFFSWSSTSLLPAG: the amyloid nucleation score was 0.219 ± 0.76.

Consider LRYDVPRWLGFSEWHF, for which the amyloid nucleation score is -0.833 ± 1.

In turn, LRYSIISLAANSKTADG yielded an amyloid nucleation score of 0.663 ± 0.7.

LSAFNWQGDVNLRECYNVY displayed an amyloid nucleation score of -0.337 ± 0.63.

As to LSAVPSNGHNNGGYVKSDVS, the amyloid nucleation score is -0.766 ± 1.4.

Substance LSCLRSYVTMHMGIIGYLFN yielded an amyloid nucleation score of 0.218 ± 0.27.

LSDRIAYVVRGC came in with an amyloid nucleation score of 0.137 ± 0.43.

As to LSFSMGYNYELATTKWSVVF, the amyloid nucleation score amounted to 1.3 ± 0.41.

As to LSGCEGVPLNLMYLDSKMSR, the amyloid nucleation score is -0.106 ± 0.74.

Substance LSHSEDVSQETTIYPNLSCN gave an amyloid nucleation score of -0.533 ± 0.68.

LSIEQTLQEAGILDYPSRIT came in with an amyloid nucleation score of -0.155 ± 0.35.

On to LSIMVCVICSYMVKMVVTGI, for which the amyloid nucleation score result is “inactive”.

LSIRNTSTSRITTLFLGL yielded an amyloid nucleation score of 1.88 ± 0.4.

LSKISTVK showed an amyloid nucleation score of -0.778 ± 0.64.

As for LSLSMPYSGVLSELYAIATF, the amyloid nucleation score is -0.384 ± 0.27.

On to LSMKSHFWKMMFTGNWSYVC, for which the amyloid nucleation score result was “inactive”.

In the case of LSPLDIPTRDLPIFLTFKDT, the amyloid nucleation score entry is “inactive”.

For LSQFD, the amyloid nucleation score was determined as 1.17 ± 0.41.

Consider LSRVKSR, for which the amyloid nucleation score was found to be 1.29 ± 0.62.

As for LSSTDFLGSDVDCFGNCNFL, the amyloid nucleation score is 3.48 ± 0.13.

With LSSYSTYPCSLTGVRKLNCR, the amyloid nucleation score was -0.205 ± 0.56.

LSTKRYDLHSTPRRPISPSR had an amyloid nucleation score of 1.08 ± 0.41.

LSTTKAIALSYLYGQNVKWS gave an amyloid nucleation score of 0.092 ± 0.21.

Regarding LSVGLKVDDEDQRLTYFVTI, the amyloid nucleation score is -0.614 ± 0.62.

LSWIR gave an amyloid nucleation score of -0.09 ± 0.66.

Turning to LSWSILDGFGGMRCCNINAL, the amyloid nucleation score is 7.155 ± 0.058.

Regarding LSWVMRYLPYVVFLSYDQPG, the amyloid nucleation score is -0.723 ± 0.62.

LSYLLWGETRIRYWVPASLM yielded an amyloid nucleation score of -0.32 ± 0.61.

LTEDLNMPSWCKP came in with an amyloid nucleation score of 0.087 ± 0.7.

LTGGLMV displayed an amyloid nucleation score of -0.06 ± 0.34.

On to LTMPMKHLRGSPDLRVNGII, for which the amyloid nucleation score was -0.502 ± 0.85.

With LTNNVYSYVWILSSARISIV, the amyloid nucleation score came out at 0.87 ± 0.22.

In turn, LTQWPGEGKV yielded an amyloid nucleation score of -0.303 ± 0.8.

LTRLSNCVLGGSC: the amyloid nucleation score was -0.512 ± 0.71.

As to LVCVFAWLFP, the amyloid nucleation score stood at 7.41 ± 0.075.

LVILVVFGKRY came in with an amyloid nucleation score of -0.139 ± 0.41.

The substance LVKNHYHFMANLGCP gave an amyloid nucleation score of 0.133 ± 1.4.

For LVKYKKV, the amyloid nucleation score is -0.088 ± 0.43.

LVLMWLLSGYGAHHFYYAK showed an amyloid nucleation score of 0 ± 1.2.

Substance LVMYDSL registered an amyloid nucleation score of 0.489 ± 0.58.

Substance LVRDHRYFEFLASV came in with an amyloid nucleation score of 0.381 ± 0.39.

Substance LVRFSSVLCMQHQREV showed an amyloid nucleation score of 0.844 ± 0.55.

In turn, LVRKKVCTI displayed an amyloid nucleation score of 0.543 ± 0.36.

As to LVRLTCDMNNFKCQLMFQIF, the amyloid nucleation score was determined as 1.17 ± 0.38.

As for LVSMYA, the amyloid nucleation score is -0.859 ± 0.73.

LVSTYGEIQKLHGYLLGMLG: the amyloid nucleation score stood at 0.002 ± 0.42.

On to LVSVCLGCEVCIFVVYIPNP, for which the amyloid nucleation score result was “inactive”.

Turning to LVTCLLHAG, the amyloid nucleation score was -1.38 ± 0.58.

As to LVTFRGGYNVDVIMWNNVRR, the amyloid nucleation score came out at 3.69 ± 0.063.

As for LVVKQLLNSAGCTRPCTVRC, the amyloid nucleation score is 0.164 ± 0.55.

LWGLVRSFFDIDNLKGFRTE came in with an amyloid nucleation score of -0.257 ± 1.9.

As for LWLAFIIES, the amyloid nucleation score turned out to be 0.338 ± 0.25.

On to LWLAVSSVNCHSRHLLVWVT, for which the amyloid nucleation score entry was “inactive”.

With LWLHGGARNVDMCKVIFYFG, the amyloid nucleation score was determined as 6.94 ± 0.088.

For LWLNLILCFQWDPQRKC, the amyloid nucleation score amounted to 4.09 ± 0.11.

Consider LWSVCLVTSVQKDAGVLPSG, for which the amyloid nucleation score stood at 0.85 ± 0.62.

LWYTALINTNACCVIRQDFR: the amyloid nucleation score worked out at 1.04 ± 0.8.

Turning to LYEDLWFRVREL, the amyloid nucleation score was 1.11 ± 0.63.

As for LYEFRGGTHVGSDFSDVVFV, the amyloid nucleation score stood at 1.05 ± 0.47.

Regarding LYFSTYVFLASTSGHLSRFD, the amyloid nucleation score was -1.36 ± 2.1.

With LYGSNVVLSVRCGMHTTHCY, the amyloid nucleation score came out at 2.81 ± 0.24.

As to LYGYCFMLVSRESFLVRSGW, the amyloid nucleation score is -0.272 ± 0.52.

Regarding LYIAH, the amyloid nucleation score was -0.722 ± 0.42.

Substance LYKEMTWRNWALSLKMSLRR yielded an amyloid nucleation score of 0.146 ± 0.5.

Substance LYLAQFQGNGDLFSVPPCKV showed an amyloid nucleation score of 0.16 ± 0.64.

LYLHNHGVWAYFKWCWGVRG came in with an amyloid nucleation score of -0.257 ± 0.53.

Turning to LYLHSWAYVHKNTLNYL, the amyloid nucleation score was -0.14 ± 0.5.

On to LYNIVCLSDIL, for which the amyloid nucleation score was found to be 5.88 ± 0.061.

LYRSGSPRTGWKLMSSSARR returned an amyloid nucleation score of 7.525 ± 0.07.

Substance LYRSGSVMSSATHYRGAHLC showed an amyloid nucleation score of -0.556 ± 0.77.

Substance LYRYEYDCNSLSMS returned an amyloid nucleation score of 2.73 ± 0.078.

For the substance LYSKGIPMACAQVVVYLNER, the amyloid nucleation score stood at 6.49 ± 0.055.

Take LYSNVRRFVWRGTWMWSRRC: the amyloid nucleation score was 0.969 ± 0.61.

For LYTYALARCIFISFMDCRMN, the amyloid nucleation score turned out to be 0.371 ± 0.26.

In the case of LYVEMEYSFDYYATKDRHQT, the amyloid nucleation score is -0.842 ± 1.7.

For LYVTVGWSLWYGSFAVMVVC, the amyloid nucleation score came out at 0.026 ± 0.41.

Regarding LYVYTYYVMVLVGQKR, the amyloid nucleation score is -0.698 ± 0.93.

LYWFAAWLATYIYAW yielded an amyloid nucleation score of 0.109 ± 0.48.

MAACMYSCSMSAVEPLHTYS: the amyloid nucleation score is 0.039 ± 0.67.

For the substance MACKIIYVTVEGMLRSRS, the amyloid nucleation score came to 1.31 ± 0.56.

As for MAEINYWTFSLVLELSARCV, the amyloid nucleation score was -1.07 ± 1.2.

MAGLL returned an amyloid nucleation score of -0.546 ± 1.1.

In turn, MAKTFRLGGLDCHLNYVVWC displayed an amyloid nucleation score of 0.113 ± 0.61.

Take MALFSCCCKVYKMG: the amyloid nucleation score came out at 4.59 ± 0.1.

In the case of MAPRFIDVMQ, the amyloid nucleation score is -0.94 ± 0.97.

Regarding MASLDGFLFNCWLRRLGFRA, the amyloid nucleation score is -0.397 ± 0.4.

The substance MCDGTFCGSSSGHCSASLRH registered an amyloid nucleation score of 0.728 ± 0.35.

In the case of MCFSVG, the amyloid nucleation score was -0.148 ± 0.4.

Consider MCKVHIIEHCSLYWRSCGIW, for which the amyloid nucleation score result was “inactive”.

MCMSRP returned an amyloid nucleation score of -1.05 ± 0.9.

Substance MDACCMFNVWLVSECGFRVH registered an amyloid nucleation score of 5.81 ± 0.064.

As to MDALMCYIFFKFE, the amyloid nucleation score came out at 4.89 ± 0.064.

The substance MDIFDTLAWTF returned an amyloid nucleation score of 0.632 ± 0.58.

Consider MEICNCKDYFKAYRRFSHGS, for which the amyloid nucleation score is 1.56 ± 0.27.

Consider MEKLGAPYRFREPGMFVRFF, for which the amyloid nucleation score is -1.1 ± 0.62.

MEVKISVRFQFVLI: the amyloid nucleation score was -0.355 ± 0.6.

For the substance MFCRVVRGGCGSSIGC, the amyloid nucleation score amounted to 0.249 ± 0.79.

MFLCNVIYCFFLTYIWLTFF registered an amyloid nucleation score of 5.33 ± 0.11.

MFQPFPFIHQVDQPFPKSVQ came in with an amyloid nucleation score of 0.51 ± 0.47.

The substance MFRYNCRRAIQIVFMYLWTP registered an amyloid nucleation score of 0.779 ± 0.28.
